Source: patent US20170051048A1 (ALDERBIO, published 2017)

Key:
[1] = molecular target: T1, Homo sapiens Beta-Nerve Growth Factor (beta-NGF) (Homo sapiens, UniProt P01138 122-241); assay: Antigen binding ELISA: biotinylated NGF on neutravidin plates, anti-human Fc-HRP, OD 450 nm
T1 construct: Biotinylated and held on neutravidin plates in the ELISA; also called huNGF; B-NGF
Experimental: (§1) To identify and characterize antibodies and Fab fragments that bind to human NGF, antibody- and Fab-containing solutions were tested by ELISA. Briefly, neutravidin coated plates (Thermo Scientific), were blocked with ELISA buffer (0.1 mg/mL BSA, 1×PBS pH 7.4, 0.002% Tween 20 and 0.005% sodium azide) for 1 hr at room temperature. The plates were then coated with a 1 µg/mL biotinylated B-NGF solution in ELISA buffer for 1 hour at room temperature. This was followed by a wash step (3× using PBS plus 0.05% Tween 20) and a second block with ELISA buffer. The recombinant antibodies or Fabs were then added onto the plates and incubated for 1 hour at room temperature and then washed 3× with PBS/Tween solution. For development, an anti-human Fc-HRP or an anti-human Fab-fragment HRP (1:5000 dilution in ELISA buffer) was added onto the wells and incubated for 45 min at RT. After a 3× wash step with PBS/Tween solution, the plate was developed using TMB substrate for 3 minutes, stopped using 0.5M HCl, and read at 450 nm.

[2] = molecular target: T1, Homo sapiens Beta-Nerve Growth Factor …; assay: Antigen binding ELISA: biotinylated NGF on neutravidin plates, anti-human Fab-fragment HRP, OD 450 nm
Experimental: as §1

T1 sequence (P01138 122-241): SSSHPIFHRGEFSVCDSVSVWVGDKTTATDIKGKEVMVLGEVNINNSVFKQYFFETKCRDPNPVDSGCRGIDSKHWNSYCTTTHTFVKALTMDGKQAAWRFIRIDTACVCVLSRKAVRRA

B1: Antibody Ab3 (antibody, human IgG1, kappa, N297A, V domains shown)
VH: QSVEESGGRLVTPGTPLTLTCTVSGFSLSSYVMIWVRQAPGKGLEYIGITWSAGTYYASWAKGRFTISKTSSTTVDLKITSPTTEDTATYFCAGGGGSIYDIWGPGTLVTVSS
VL: AVLTQTPSPVSAAMGDTVTIKCQSSQSVYKNNYLSWYQQKPGQPPRLLIYDASNLPSGVPSRFSGSGSGTQFTLTISGVQCDDAATYYCLGDYDDDADNAFGGGTEVVVKR
- EC50 [1]: 0.257 nM
- EC50 (read off the curve) [1]: ~0.3 nM

B2: Antibody fragment Fab1 (Fab, V domains shown)
VH: EVQLVESGGGLVQPGGSLRLSCAASGFTVSNYAVGWVRQAPGKGLEWVGIIGRNGNTWYASSARGRFTISRDNSKNTLYLQMNSLRAEDTAVYYCARGYGRSVAYYVFNIWGPGTLVTVSS
VL: DIQMTQSPSTLSASVGDRVTITCQASQSIYSNLAWYQQKPGKAPKLLIYDASTLESGVPSRFSGSGSGTEYTLTISSLQPDDFATYYCQQGFTVSDIDNAFGGGTKVEIKR
- EC50 [2]: 0.4 nM
- EC50 (read off the curve) [2]: ~0.04 nM

B3: Antibody fragment Fab2 (Fab, V domains shown)
VH: B2 VH
VL: B2 VL
- EC50 [2]: 0.8 nM
- EC50 (read off the curve) [2]: ~0.08 nM
